From patent US20240010720A1 (IOMX THERAPEUTICS, published 2024)
Positions count from the first letter of the chain named.

Experiments:
[1] = target: T1, IGSF11 ECD fused to murine-Fc (human; mouse, UniProt Q5DX21 23-241); experiment: ELISA, IgG
T1 construct: also called Fc-fusion IGSF11 ECD; full-length ECD of IGSF11; not shown: murine Fc
T1 sequence: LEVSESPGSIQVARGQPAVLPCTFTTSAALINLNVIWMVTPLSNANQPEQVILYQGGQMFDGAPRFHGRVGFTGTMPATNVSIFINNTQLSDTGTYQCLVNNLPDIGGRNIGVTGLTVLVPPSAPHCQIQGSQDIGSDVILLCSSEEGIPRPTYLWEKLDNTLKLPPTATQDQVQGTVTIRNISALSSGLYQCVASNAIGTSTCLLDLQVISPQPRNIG

[2] = target: T2, His-tagged extracellular domain (ECD) of human IGSF11 (VSIG3) (human, UniProt Q5DX21 23-241); experiment: ELISA EC50 grade, IgG1
T2 construct: partly bought (SinoBiological 13094-H08H); also called IGSF11-HIS; HIS-IGSF11; not shown: HIS6 tag
T2 sequence: T1 sequence

Streptavidin [3] = target: T3, Streptavidin (UniProt P22629 37-163, limits assumed); experiment: ELISA, Fab
T3 construct: also called negative antigen; irrelevant antigen
Protocol: In order to identify IGSF11-specific binding ABPs, monoclonal Fabs expressed from E. coli were generated from the enriched set of anti-IGFS11 antibody-expressing phage. After bacterial lysis, the Fabs were tested for their binding properties and cross-reactivity profile on recombinant ECD-IGSF11 (human, mouse and cynomolgus monkey) by standard ELISA. Briefly, biotinylated recombinant ECD-IGSF11 from human, mouse, or cynomolgus monkey were immobilized at 2 ug/mL on a streptavidin-coated 384-well Maxisorp plate. The surface was blocked with 2% (w/v) skim milk powder in PBST. After three wash cycles with PBST, a bacterial lysate of each of the anti-IGSF11 Fabs in 2% (w/v) skim milk powder was applied to the immobilized IGSF11 and incubated for 1 h. After removing all unbound Fab by 3 wash cycles with PBST, bound Fab antibodies were detected with a goat anti-human Fab antibody conjugated with horseradish peroxidase. After three wash cycles with PBST the ELISA was developed with TMB substrate.

Streptavidin [4] = target: T3, Streptavidin; experiment: ELISA, scFv

T3 sequence (P22629 37-163 limits assumed): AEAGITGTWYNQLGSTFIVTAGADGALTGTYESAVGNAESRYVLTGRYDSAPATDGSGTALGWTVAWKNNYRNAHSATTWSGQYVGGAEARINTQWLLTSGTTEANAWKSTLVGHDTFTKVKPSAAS

B1: C-006 (IgG1 format) (antibody, V domains shown)
VH: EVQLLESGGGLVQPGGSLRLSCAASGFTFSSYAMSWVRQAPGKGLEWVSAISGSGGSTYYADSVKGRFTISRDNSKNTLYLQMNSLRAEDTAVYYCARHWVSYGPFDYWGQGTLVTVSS
VL: DIQMTQSPSSLSASVGDRVTITCRASQSISSYLNWYQQKPGKAPKLLIYAASSLQSGVPSRFSGSGSGTDFTLTISSLQPEDFATYYCQQSHQSPPITFGQGTKVEIK
notes: wildtype human IgG1 and kappa or lambda constant regions
EC50 [1]: 1 to 20 nM

B2: A-001 (IgG1 format) (antibody, V domains shown)
VH: EVQLVESGGGLVKPGGSLRLSCAASGFTFSSYSMNWVRQAPGKGLEWVSSISSSSSYIYYADSVKGRFTISRDNAKNSLYLQMNSLRAEDTAVYYCVRSIIVQALGITSVFDIWGQGTMVTVSS
VL: AIRLTQSPSSLSASVGDRVTISCRASQIISNHLNWYQQKPGKAPKLLIYAASRLQTGVPSRFSGSGSETDYTLTISSLQPEDFATYYCQQSYSNPRTFGHGTKVEIK
notes: human IgG1 format
EC50 [2]: < 0.02 nM

B3: A-025 (IgG1 format) (antibody, V domains shown)
VH: QVQLVQSGAEVKKPGSSVKVSCKASGGTFSSYAISWVRQAPGQGLEWMGGIIPIFGTANYAQKFQGRVTITADESTSTAYMELTSLRSEDTAVYYCARGGWLRQNWFDPWGQGTLVTVSS
VL: SSELTQDPAVSVALGQTVRITCQGDSLRSYYASWYQQKPGQAPVLVIYGKNNRPSGIPDRFSGSSSGNTASLTITGAQAEDEADYYCNSRDSSGNHPRVFGGGTKLTVL
notes: human IgG1 format
EC50 [2]: 0.05 to 1 nM

B4: A-009 (IgG1 format) (antibody, V domains shown)
VH: B3 VH with T84S, G100R, W101G, L102F, R103G, Q104E, N105L, W106Y, P109Y
VL: ETTLTQSPATLSVSPGERATLSCRASQGVRSNIAWYQQKPGQAPRLLIYDSSTRATGIPARFSGSGSGTEFTLTISSLQSEDFAVYSCQQYKNWPRTFGQGTKVEIK
notes: human IgG1 format
EC50 [2]: 0.05 to 1 nM

B5: C-010 (IgG1 format) (antibody, V domains shown)
VH: B3 VH with T84S, G100Y, W101G, L102E, R103Y, Q104Y, N105P, W106A, P109V
VL: SYELTQPPSVSVSPGQTASITCSGDKLGDKYASWYQQKPGQSPVLVIYQDSKRPSGIPERFSGSNSGNTATLTISGTQAEDEADYYCASYAHTHSTWVFGGGTKLTVL
notes: as for B1
EC50 [1]: 20 to 100 nM

B6: C-007 (Fab format) (Fab, V domains shown)
VH: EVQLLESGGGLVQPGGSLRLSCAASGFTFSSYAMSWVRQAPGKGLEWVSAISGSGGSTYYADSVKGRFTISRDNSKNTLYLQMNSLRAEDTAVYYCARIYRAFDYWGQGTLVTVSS
VL: ASVLTQPPSVSAAPGQKVTISCSGSSSNIGNNYVSWYQQLPGTAPKLLIYDNNKRPSGIPDRFSGSKSGTSATLGITGLQAEDEADYYCQLYEEEHSTWVFGGGTKLTVL
notes: Fab in E. coli lysate
A450 (Streptavidin [3]): < 0.1

B7: C-026 (IgG1 format) (antibody, V domains shown)
VH: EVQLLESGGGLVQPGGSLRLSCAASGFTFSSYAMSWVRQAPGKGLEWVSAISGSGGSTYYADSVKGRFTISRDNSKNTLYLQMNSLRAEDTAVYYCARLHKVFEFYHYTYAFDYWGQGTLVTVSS
VL: B6 VL with Q90A, L91S, E93S, E94S, H96T, T98G
notes: as for B1
EC50 [1]: 1 to 20 nM

B8: C-002 (IgG1 format) (antibody, V domains shown)
VH: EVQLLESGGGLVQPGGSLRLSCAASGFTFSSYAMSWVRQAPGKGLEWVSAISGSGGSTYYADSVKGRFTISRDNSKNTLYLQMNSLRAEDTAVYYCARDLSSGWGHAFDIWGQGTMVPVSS
VL: B6 VL with Q90L, L91S, E93T, E94T, E95S, H96E, S97H, T98H, W99L
notes: as for B1
EC50 [1]: 1 to 20 nM

B9: C-001 (Fab format) (Fab, V domains shown)
VH: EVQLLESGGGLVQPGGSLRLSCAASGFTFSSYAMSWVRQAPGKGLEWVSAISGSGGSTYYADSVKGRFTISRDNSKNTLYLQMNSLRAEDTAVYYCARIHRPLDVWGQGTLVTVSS
VL: B6 VL with Q90G, L91S, Y92W, E93L, H96R, T98Q, W99Y
notes: Fab in E. coli lysate
A450 (Streptavidin [3]): < 0.1

B10: C-008 (Fab format) (Fab, V domains shown)
VH: EVQLLESGGGLVQPGGSLRLSCAASGFTFSSYAMSWVRQAPGKGLEWVSAISGSGGSTYYADSVKGRFTISRDNSKNTLYLQMNSLRAEDTAVYYCTTDNGHNRDWGQGTLVTVSS
VL: ASVLTQPPSVSAAPGQKVTISCSGSSSNIGNNYVSWYQQLPGTAPKLLIYDNNKRPSGIPDRFSGSKSGTSATLGITGLQAEDEADYYCGTWTRSSGVFGGGTKLTVL
notes: Fab in E. coli lysate
A450 (Streptavidin [3]): < 0.1

B11: C-008 (IgG1 format) (antibody, V domains shown)
VH: B10 VH
VL: B10 VL
notes: as for B1
EC50 [1]: < 1 nM

B12: A-023 (IgG1 format) (antibody, V domains shown)
VH: QVQLVQSGAEVKKPGSSVKVSCKASGGTFSSYAISWVRQAPGQGLEWMGGIIPIFGTANYAQKFQGRVTITADESTSTAYMELSSLRSEDTAVYYCARPKYSSGWFYYYGMDVWGQGTTVTVSS
VL: QSVLTQPPSVSAAPGQKVTISCSGSSSNIGNNYVSWYQQLPGTAPKLLIYDNNKRPSGIPDRFSGSKSGTSATLGITGLQTGDEADYYCGTWDSSLSVVFGGGTKLTVL
notes: human IgG1 format
EC50 [2]: 0.05 to 1 nM

B13: A-033 (IgG1 format) (antibody, V domains shown)
VH: QVQLVQSGAEVKKPGASVKVSCKASGYTFTSYGISWVRQAPGQGLEWMGWISAYNGNTNYAQKLQGRVTMTTDTSTSTAYMELRSLRSDDTAVYYCARDHSIVGATTFDYWGQGTLVTVSS
VL: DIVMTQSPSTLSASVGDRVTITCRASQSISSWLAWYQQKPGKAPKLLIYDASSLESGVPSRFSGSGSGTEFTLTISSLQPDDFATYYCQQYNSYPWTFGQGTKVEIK
notes: human IgG1 format
EC50 [2]: 0.02 to 0.05 nM

B14: A-008 (IgG1 format) (antibody, V domains shown)
VH: QLQLQESGPGLVKPSETLSLTCTVSGGSISSSGYYWGWIRQPPGKGLEWIGSIYYSGSTYYNPSLKSRVTISVDTSKNQFSLKLSSVTAADTAVYYCARHRVRFGEFDAFDIWGQGTMVTVSS
VL: QAVLTQPPSVSGAPGERVTLSCTGTSSNVGADFDVHWYQQFPGTAPRLLIFGSDNRPSGVPDRFSGSKSGTSASLAITGLQVEDEADYYCQAYDVRLSGWVFGGGTKLTVL
notes: human IgG1 format
EC50 [2]: 0.02 to 0.05 nM

B15: A-029 (IgG1 format) (antibody, V domains shown)
VH: QVQLVQSGAEVKKPGSSVKVSCKASGGTFSSYAISWVRQAPGQGLEWMGGIIPIFGTANYAQKFQGRVTITADESTGTAYMELSSLRSEDTAVYYCARSYYYYYGMDVWGQGTTVTVSS
VL: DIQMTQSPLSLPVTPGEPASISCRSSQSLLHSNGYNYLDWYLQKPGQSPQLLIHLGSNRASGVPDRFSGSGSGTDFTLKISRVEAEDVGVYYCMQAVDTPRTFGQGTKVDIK
notes: human IgG1 format
EC50 [2]: 0.05 to 1 nM

B16: C-005 (Fab format) (Fab, V domains shown)
VH: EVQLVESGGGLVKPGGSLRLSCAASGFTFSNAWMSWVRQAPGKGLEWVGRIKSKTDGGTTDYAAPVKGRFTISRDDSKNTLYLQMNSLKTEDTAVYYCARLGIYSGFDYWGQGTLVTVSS
VL: B5 VL with A88H, A91T, H92G, T93K, H94P, T96Q, W97V
notes: Fab in E. coli lysate
A450 (Streptavidin [3]): < 0.1

B17: C-018 (IgG1 format) (antibody, V domains shown)
VH: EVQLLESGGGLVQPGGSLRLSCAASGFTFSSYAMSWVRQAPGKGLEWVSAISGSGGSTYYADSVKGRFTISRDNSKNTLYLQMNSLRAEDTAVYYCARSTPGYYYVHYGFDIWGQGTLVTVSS
VL: B5 VL with A88Q, S89A, Y90W, A91S, H92T, T93S, H94T, S95H, T96S
notes: as for B1
EC50 [1]: 1 to 20 nM

B18: C-015 (IgG1 format) (antibody, V domains shown)
VH: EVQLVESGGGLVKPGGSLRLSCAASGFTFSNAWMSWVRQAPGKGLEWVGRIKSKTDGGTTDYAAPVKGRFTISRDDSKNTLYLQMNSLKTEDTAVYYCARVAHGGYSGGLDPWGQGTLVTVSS
VL: B5 VL with A88S, Y90T, A91G, H92T, T93A, S95T, T96L, W97A
notes: as for B1
EC50 [1]: 20 to 100 nM

B19: C-009 (IgG1 format) (antibody, V domains shown)
VH: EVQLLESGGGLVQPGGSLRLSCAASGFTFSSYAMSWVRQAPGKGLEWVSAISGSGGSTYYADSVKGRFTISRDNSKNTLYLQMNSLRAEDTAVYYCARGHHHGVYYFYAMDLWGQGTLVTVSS
VL: B5 VL with A88Q, A91S, H92G, T93S, H94S, S95T, T96L, W97H
notes: as for B1
EC50 [1]: 1 to 20 nM

B20: C-024 (IgG1 format) (antibody, V domains shown)
VH: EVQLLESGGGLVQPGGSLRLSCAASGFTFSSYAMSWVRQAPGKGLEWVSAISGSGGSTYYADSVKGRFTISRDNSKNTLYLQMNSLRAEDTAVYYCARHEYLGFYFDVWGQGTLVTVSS
VL: B5 VL with A88L, S89A, Y90S, A91H, H92R, T93L, H94T, S95L, T96N, W97Y
notes: as for B1
EC50 [1]: 1 to 20 nM

B21: C-013 (IgG1 format) (antibody, V domains shown)
VH: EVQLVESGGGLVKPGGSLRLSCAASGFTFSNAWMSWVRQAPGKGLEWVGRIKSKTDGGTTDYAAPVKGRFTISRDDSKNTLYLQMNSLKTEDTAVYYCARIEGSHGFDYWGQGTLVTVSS
VL: B5 VL with A91L, H94P, S95K, T96Q, W97F
notes: as for B1
EC50 [1]: 1 to 20 nM

B22: C-023 (IgG1 format) (antibody, V domains shown)
VH: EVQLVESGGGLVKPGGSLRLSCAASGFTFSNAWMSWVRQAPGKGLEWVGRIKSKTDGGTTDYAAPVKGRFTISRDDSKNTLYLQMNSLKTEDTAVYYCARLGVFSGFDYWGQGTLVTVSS
VL: B5 VL with A88H, S89T, Y90W, A91T, T93H, H94S, S95L, T96A, W97V
notes: as for B1
EC50 [1]: < 1 nM

B23: A-035 (scFv format) (scFv, V domains shown)
VH: QVQLVQSGAEVKKPGASVKVSCKASGYTFTGYYMHWVRQAPGQGLEWMGWINPNSGNTGYAQKFQGRVTMTRNTSISTAYMELSSLRSEDTAVYYCARGRLERGYWYFDLWGRGTLVTVSS
VL: NFMLTQPHSVSESPGRTVTISCTRSSGSITSNYVQWYQQRPGSAPTILIYEDKERPSEVPDRFSGSIDISSNSASLTISGLKTEDEADYYCQSYGGTSQGVLFGGGTKVTVL
notes: scFv
binding result (Streptavidin [4]): no binding (tested: <0.025 or <0.05 RFU)

B24: C-022 (IgG1 format) (antibody, V domains shown)
VH: EVQLLESGGGLVQPGGSLRLSCAASGFTFSSYAMSWVRQAPGKGLEWVSAISGSGGSTYYADSVKGRFTISRDNSKNTLYLQMNSLRAEDTAAYYCARMAAGASWGTFDYWSQGTLVTVSS
VL: DIQMTQSPSSLSASVGDRVTITCRASQSISSYLNWYQQKPGKAPKLLIYAASSLQSGVPSRFSGSGSGTDFTLTISSLQPEDFATYYCQQRSGSPLTFGQGTKVEIK
notes: as for B1
EC50 [1]: 1 to 20 nM

B25: A-003 (IgG1 format) (antibody, V domains shown)
VH: VQLVQSGAEVKKPGSSVKVSCKASGGTFSSYAISWVRQAPGQGLEWMGGIIPIFGTANYAQKFQGRVTITADESTSTAYMELSSLRSEDTAVYYCASPRIQLWAAGGFDYWGQGTLVTVSS
VL: QSALTQPASVSGSPGQSITISCTGTSSDVGGYNLVSWYQQHPGKAPKLMIYDVSNRPSGVSNRFSGSKSGNTASLTISGLQAEDEADYYCSSFTTSTTLVFGGGTKLTVL
notes: human IgG1 format
EC50 [2]: 0.05 to 1 nM

B26: A-004 (scFv format) (scFv, V domains shown)
VH: EVQLVESGGGLVKPGGSLRLSCAASGFTFSSYSMNWVRQAPGKGLEWVSSISSSSSYIYYADSVKGRFTISRDNAKNSLYLQMNSLRAEDTAVYYCARGQLLWFGESALIDAFDIWGQGTMVTVSS
VL: EIVLTQSPSSLSASVGDRVTITCRASQSISSYLNWYQLKPGKAPKLLIYAASILQSGVPSRFSGSGSGTDFTLTISSLQPEDFAAYYCQQSYSTPRTFGQGTKLEIK
notes: scFv
binding result (Streptavidin [4]): no binding (tested: <0.025 or <0.05 RFU)

B27: A-016 (IgG1 format) (antibody, V domains shown)
VH: QVQLQESGAEVKKPGASVKVSCKASGYTFTGYYMHWVRQAPGQGLEWMGGIIPIFGTANYAQKFQGRVTITADESTSTAYMELSSLRSEDTAVYYCAGAGMELTRSGAYYYYGMDVWGQGTTVTVSS
VL: QSALTQPASVSGSPGQSITISCTGTSSDIGGYTFVSWYQQHPGKAPKVMIHDVNNRPSGISNRFSGSKSGNTASLTISGLQAEDEADYYCSSVTSTNTYVFGTGTKVTVL
notes: human IgG1 format
EC50 [2]: < 0.02 nM
